Results: US20130330294A1, “Serum Amyloid A (SAA) Overrides Regulatory T Cells (TREG) Anergy” (The Board of Trustees of the Leland Stanford Junior …, priority 2010, published 2013)

Key:
SOCS3 in Treg = experiment: SOCS3 expression in forskolin-treated Treg by intracellular staining; type: cell-based, human; settings: after 24 hour stimulation
Protocol: To evaluate effects of plasma on suppression assays and immune cell cultures, frozen plasma samples were thawed at 25° C. and debris were removed with sterile 40 μm filters (BD Biosciences). All plasma samples were tested in duplicates or triplicates. To control for variations in suppressive and proliferative potentials of Treg and Teff, respectively, both HC and SJIA plasma samples were used in parallel suppression assays with the same set of purified cells for each round of experiments. In addition, fold change in 3H-thymidine cpm in assays with plasma compared to those in complete media alone, was computed to analyze the effects of plasma in suppression assays or stimulation assays. In CFSE assays, percentage of proliferating cells (shown by dye dilution) was used to analyze the effects of plasma on cell proliferation. IL-1Ra, neutralizing antibody against IL-6 and TNF-α (R&D System), and recombinant IL-1, IL-6 (Peprotech) were used to evaluate the roles of these cytokines in suppression assays. Recombinant SAA (Peprotech) was used at different concentrations in suppression assays in the presence of polymixin (5 μg/ml). […] To pharmacologically modulate SOCS3, isolated Treg were cultured with forskolin (Calbiochem) at different concentrations and analyzed for SOCS3 expression at different time points. […]

Treg and Teff [1] = experiment: CFSE-based Treg suppression assay with APC; type: cell-based, human
Protocol: Carboxyfluorescein diacetate succinimidyl ester (CFSE) dilution assay was used for measuring T cell proliferation in suppression assays. Briefly, Treg were labeled with CFSE using Cell Tracer CFSE Cell Proliferation kit (Molecular Probes) at a final concentration of 10 μM, according to manufacturer's instructions. Assays with labeled cells were performed as described for 3H-thymidine-based suppression assays. After 7 days of culture, cells were harvested and dye dilution was analyzed by flow cytometry. Stimulation assays were set up similarly with allogeneic irradiated APC and only one type of CFSE-labeled T cells (either Treg or Teff). For APC fixation, these cells were first re-suspended in PBS+10% FBS+1% paraformaldehyde for […] at 37° C. Fixed cells were pelleted by centrifugation, washed and then cultured in complete media.
To evaluate effects of plasma on suppression assays and immune cell cultures, frozen plasma samples were thawed at 25° C. and debris were removed with sterile 40 μm filters (BD Biosciences). All plasma samples were tested in duplicates or triplicates. To control for variations in suppressive and proliferative potentials of Treg and Teff, respectively, both HC and SJIA plasma samples were used in parallel suppression assays with the same set of purified cells for each round of experiments. In addition, fold change in 3H-thymidine cpm in assays with plasma compared to those in complete media alone, was computed to analyze the effects of plasma in suppression assays or stimulation assays. In CFSE assays, percentage of proliferating cells (shown by dye dilution) was used to analyze the effects of plasma on cell proliferation. IL-1Ra, neutralizing antibody against IL-6 and TNF-α (R&D System), and recombinant IL-1, IL-6 (Peprotech) were used to evaluate the roles of these cytokines in suppression assays. […] To pharmacologically modulate SOCS3, isolated Treg were cultured with forskolin (Calbiochem) at different concentrations and analyzed for SOCS3 expression at different time points.

[2] = tested on: pERK1/2, pAKT, pSTAT3 in Treg and Teff; experiment: Phosphorylation of ERK1/2, AKT and STAT3 in Treg and Teff in suppression assays by FACS; type: cell-based, human; settings: assays with SJIA plasma, day 4; IL-1 RA 1 μM, anti-IL-6 1 μg/ml
Protocol: (§1) Detection of surface markers and intracellular molecules was performed. Antibodies used in these experiments included anti-human RAGE, SOCS3 (Abcam), CD14-FITC, DR-FITC, Foxp3-FITC, Lin (mixture of CD3, CD14, CD16, CD19, CD56)-FITC, CD14-PE, CD25-PE, CD40-PE, CD83-PE, CD127-PE, HVEM-PE, PDL2-PE, IL-1-PE, IL-6-PE, CD3-PerCP, CD4-PerCP, CD19-PerCP, CD25-PerCP, DR-PerCP, Lin-PerCP, CD3-APC, CD4-APC, CD14-APC, CD36-APC, CD86-APC, TLR2-APC, TLR4-APC, PDL1-APC, CCR7-APC, IL-6-APC, Lin-APC (Biolegend), Ki-67 FITC, pSTAT3 Alexa-647, pAKT Alexa-647, pERK1/2 Alexa-647 (BD Biosciences), and FPRL-1-APC(R&D System). Antibodies to mouse proteins used in these experiments included anti-CD25-PE, CD4-PerCP, CD11b-PerCP, CD115-APC, and Foxp3-APC (Biolegend). For in vitro experiments, to assay for expression of different surface and intracellular molecules in a specific cell subset (Treg, Teff or APC) in mixed cell cultures, the relevant subset was labeled with CFSE prior to suppression assays. Cells were pelleted at various time points and underwent standard staining protocols of the manufacturers. For in vivo experiments, cells were harvested from the peritoneal cavity and underwent flow cytometric analysis.

peritoneal Treg and Teff = experiment: In vivo effects of SAA on Treg frequency and proliferation (intraperitoneal injection); set-up: species or system C57B6 mice; settings: 16 hours
Protocol: as §1, with “C57B6 mice (male, 8 to 10 weeks old) were purchased from Jackson Laboratory. Mice were injected intraperitoneally with recombinant human SAA (Peprotech, 30 μg in 100 μl PBS), purified human serum albumin (Sigma Aldrich, 30 μg in 100 μl PBS), or endotoxin (Sigma Aldrich, 0.25 ng in 100 μl PBS). Animals were sacrificed 16 hours later; peritoneal cells were harvested and stained for surface and intracellular markers to detect Treg frequency and proliferation. In vivo depletion of monocytes was performed with clodronate liposomes (Encapsula). In these experiments, 400 μl of clodronate or empty liposomes were injected intraperitoneally 24 hours before SAA injection. Detection” for “Detection”, “[…],” for “CD127-PE, HVEM-PE, PDL2-PE, IL-1-PE, IL-6-PE,”

Treg and Teff [3] = experiment: Suppression assay without APC (anti-CD3 and anti-CD28 as T cell stimuli); type: cell-based, human; settings: recombinant SAA 25 μg/ml
Protocol: Standard 3H-thymidine-based suppression assays were performed to analyze Treg function. Autologous Treg and Teff were cultured at 3,750 cells per 50 μl per well in complete media (RPMI+10% FBS+1% L-glutamine) with allogeneic irradiated CD3-depleted peripheral blood mononuclear cells (antigen presenting cells or APC), at 37,500 cells per 50 μl per well. Anti-CD3 antibodies (clone UCHT1, BD Biosciences) were pre-coated on U-bottom 96 well plates at 5 μg/ml for 4 hours at 37° C. before suppression assays. Additional media was added so the final volume in each well was 200 μl. On day 6, cells were pulsed with 1 μCi 3H-thymidine (25 μl) per well and harvested on day 7 with a Tomtec cell harvester. 3H-thymidine incorporation was determined using a 1450 microbeta Wallac Trilux liquid scintillation counter. […] Stimulation assays were set up similarly with allogeneic irradiated APC and only one type of T cell (either Treg or Teff). All assays were performed in triplicates. For suppression assays without APC, anti-CD3 antibodies at 5 μg/ml final concentration (clone UCHT1, BD Biosciences) were plate-bound in U-bottom 96-well plates for 4 hours at 37° C. Soluble anti-CD28 (5 μg/ml, BD Biosciences) was added, followed by Teff (40,000 cells per 50 μl per well) and Treg (40,000 cells per 50 μl per well). […]

[4] = tested on: APC, monocytes and B cells; experiment: Secreted and intracellular cytokines in suppression assays, APC, monocyte and B cell cultures; type: cell-based, human; settings: 25 μg/ml, polymixin 5 μg/ml, 24 hours
Protocol: Both suppression assays and APC cultures were set up for supernatant collection. For APC cultures, 50 μl of APC stock solution (750,000 cells per ml) were incubated in a final volume of 200 μl per well in complete media. Plasma samples were used at 35 μl per well. At different time points, supernatants were collected after centrifugation to pellet cells; supernatants representing samples from the same experimental conditions were pooled from 6 wells of 96-well plates and stored at −80° C. until analysis. To detect cytokines in the supernatants, cytometric bead arrays (BD Biosciences) and ELISA (R&D System) were used according to manufacturers' protocols. Similar assays were performed for plasma samples from HC and SJIA subjects.
Detection of surface markers and intracellular molecules was performed. Antibodies used in these experiments included anti-human RAGE, SOCS3 (Abcam), CD14-FITC, DR-FITC, Foxp3-FITC, Lin (mixture of CD3, CD14, CD16, CD19, CD56)-FITC, CD14-PE, CD25-PE, CD40-PE, CD83-PE, CD127-PE, HVEM-PE, PDL2-PE, IL-1-PE, IL-6-PE, CD3-PerCP, CD4-PerCP, CD19-PerCP, CD25-PerCP, DR-PerCP, Lin-PerCP, CD3-APC, CD4-APC, CD14-APC, CD36-APC, CD86-APC, TLR2-APC, TLR4-APC, PDL1-APC, CCR7-APC, IL-6-APC, Lin-APC (Biolegend), Ki-67 FITC, pSTAT3 Alexa-647, pAKT Alexa-647, pERK1/2 Alexa-647 (BD Biosciences), and FPRL-1-APC(R&D System). […]

[5] = in the presence of polymixin (5 μg/ml)

## C=C[C@@]1(C)CC(=O)[C@]2(O)[C@@]3(C)[C@@H](O)CCC(C)(C)[C@@H]3[C@H](O)[C@H](OC(C)=O)[C@@]2(C)O1 [forskolin]
SOCS3 in Treg
  optimal dosing for SOCS3 induction in Treg: 100 µM

## IL-1Ra: IL-1 receptor antagonist (R&D System)
Treg and Teff [1]; suppression assays with SJIA plasma, various concentrations, IL-1 Ra 1 μM, antibodies 1 μg/ml
  inhibition of SJIA plasma-induced Treg proliferation: significant inhibition
[2]
  phosphorylated ERK1/2 in Treg with blocking reagent: abrogated the increased expression
  phosphorylation of AKT in Treg with blocking reagent: inhibited phosphorylation of AKT

B1: recombinant human SAA (protein, UniProt P0DJI8 19-122, looked up)
Serum amyloid A-1 protein: RSFFSFLGEAFDGARDMWRAYSDMREANYIGSDKYFHARGNYDAAKRGPGGAWAAEVITDARENIQRFFGHGAEDSLADQAANEWGRSGKDPNHFRPAGLPEKY
Peritoneal Treg and Teff; 30 μg i.p. in 100 μl PBS, vs human serum albumin or endotoxin
  Treg abundance in the peritoneal cavity: significant increase in Treg abundance
Peritoneal Treg and Teff; 30 μg i.p.
  Teff proliferation in vivo: did not enhance Teff proliferation
Peritoneal Treg and Teff; 30 μg i.p., vs controls
  percentage of peritoneal Treg expressing Ki-67: significantly higher percentage
Treg and Teff [1]; [5]
  Treg proliferation in suppression assays: selectively enhance proliferation of Treg
  Treg suppressive activity: without reducing their suppressive activity
Treg and Teff [3]
  Treg proliferation in the absence of APC: failed to induce Treg proliferation
[4]
  IL-1 production by monocytes compared with B cells: significantly higher levels
  IL-6 production by monocytes compared with B cells: significantly higher levels
